From US20200299395A1 (MOGAM INSTITUTE FOR BIOMEDICAL RESEARCH, published 2020)
Changes are numbered by the printed parent chain.

Assays:
[1] = molecular target: BCMA expressed on multiple myeloma cell lines H929 and MM1S (UniProt Q02223); assay: flow cytometry, H929 cells, negative control without VH domain [B), H929 table]
[2] = molecular target: BCMA expressed on multiple myeloma cell lines H929 and MM1S (UniProt Q02223); assay: flow cytometry, MM1S cells, negative control without VH domain [B), MM1S table]
[3] = molecular target: BCMA expressed on multiple myeloma cell lines H929 and MM1S (UniProt Q02223); assay: flow cytometry, MM1S cells, negative control without VH-Fc protein [B), MM1S table]
[4] = molecular target: BCMA expressed on multiple myeloma cell lines H929 and MM1S (UniProt Q02223); assay: flow cytometry, H929 cells, negative control without VH-Fc protein [B), H929 table]
[5] = molecular target: T1, BCMA expressed on multiple myeloma cell lines H929 and MM1S (UniProt Q02223 1-184, limits assumed); assay: flow cytometry, H929 cells, purified VH domain (text: 1 uM); control iso_anti-His-PE Median 10.8 [B), H929 table]
T1 construct: whole, on cells; Endogenous BCMA on tumour cell lines; also called BMCA; cell surface BCMA
T1 sequence (looked up): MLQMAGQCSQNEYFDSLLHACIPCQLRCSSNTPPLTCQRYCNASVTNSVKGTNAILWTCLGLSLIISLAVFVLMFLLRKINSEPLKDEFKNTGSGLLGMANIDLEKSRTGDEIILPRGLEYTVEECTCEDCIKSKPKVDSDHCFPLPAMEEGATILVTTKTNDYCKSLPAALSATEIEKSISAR
Experimental: (§1) Multiple myeloma cells in culture were placed in a 50 ml tube and centrifuged at 1,000 rpm for 5 minutes at room temperature. Then, the culture solution was discarded and washing with PBS was performed once. The resultant was suspended in FACS buffer and then transferred to a round bottom tube. Centrifugation was performed at 2,000 rpm for 3 minutes at room temperature. The supernatant was discarded and loosening was performed with FACS buffer so as to obtain 1×10⁶ cells/100 μl. Then, 1 uM of the purified candidate antibody was added thereto at 4° C.
(§2) As a control, FACS buffer containing no candidate antibody was added. After 30 minutes, washing with FACS buffer was performed twice. […] The cells were collected by centrifugation at 2,000 rpm for 3 minutes, and then 200 μl of fixation buffer was added thereto. The cells were resuspended and measured by FACS Calibur™. The results are illustrated in FIGS. 4 and 5.

[6] = molecular target: T1, BCMA expressed on multiple myeloma cell …; assay: flow cytometry, H929 cells, purified VH domain (text: 1 uM); control iso_anti-His-PE Mean 13.5 [B), H929 table]
Experimental: as §1, §2

[7] = molecular target: T1, BCMA expressed on multiple myeloma cell …; assay: flow cytometry, MM1S cells, purified VH domain (text: 1 uM); control iso_anti-His-PE Median 3.74 [B), MM1S table]
Experimental: as §1, §2

[8] = molecular target: T2, recombinant human BCMA (Cat. No. 193-BC, R&D Systems) (human, UniProt Q02223 1-54); assay: BLI (Octet), BCMA fixed on Anti-Fc Biosensor, antibody 0.078 to 5 nM
T2 sequence (looked up): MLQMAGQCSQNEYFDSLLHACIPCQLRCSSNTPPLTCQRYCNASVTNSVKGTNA
Experimental: Among the selected 20 clones, Clones MN1, MN5, MN7, and MN8 which were expected to have excellent binding capacity to BCMA-expressing tumor cell lines were purified. Quantitative binding capacity (affinity) of Clones MN1, MN5, MN7, and MN8 to recombinant human BCMA was measured using the OCTET system (Pall Corporation). BCMA (Cat. No. 193-BC, R&D Systems) purified from HEK293 cells was fixed to Biosensor (Pall Corporation). Then, the MN1, MN5, MN7, or MN8 antibody diluted sequentially in Kinetic bfr (Pall Corporation) was allowed to associate in a concentration range of 0.078 nM to 5 nM for 120 seconds, and was allowed to dissociate by performing flowing at a flow rate of 30 μl/min for 1,800 seconds. Dissociation of the BCMA-bound antibody was induced by flowing 10 mM glycine-HCl pH 1.5 at a flow rate of 30 μl/min for 30 seconds (Table 3). The binding affinity was obtained as the kinetic parameters (Kon and Koff) and the equilibrium dissociation constant (KD) using the Octet system data analysis software (Table 4).

[9] = molecular target: T1, BCMA expressed on multiple myeloma cell …; assay: flow cytometry, MM1S cells, purified VH domain (text: 1 uM); control iso_anti-His-PE Mean 4.19 [B), MM1S table]
Experimental: as §1, §2

[10] = molecular target: T1, BCMA expressed on multiple myeloma cell …; assay: flow cytometry, MM1S cells, purified VH-Fc protein, 100nM per the sample name; control anti-hFc-PE Mean 2.81 [B), MM1S table]
[11] = molecular target: T1, BCMA expressed on multiple myeloma cell …; assay: flow cytometry, H929 cells, purified VH-Fc protein, 100nM per the sample name; control anti-hFc-PE Mean 5.41 [B), H929 table]
[12] = molecular target: T1, BCMA expressed on multiple myeloma cell …; assay: flow cytometry, MM1S cells, purified VH-Fc protein, 100nM per the sample name; control anti-hFc-PE Median 2.50 [B), MM1S table]
[13] = molecular target: T1, BCMA expressed on multiple myeloma cell …; assay: flow cytometry, H929 cells, purified VH-Fc protein, 100nM per the sample name; control anti-hFc-PE Median 4.82 [B), H929 table]

Q: iso_anti-His-PE (antibody) was tested. Which Mean FL2-H [1] did it give?
A: The Mean FL2-H was 13.5.

Q: And the Median FL2-H [1]?
A: The Median FL2-H was 10.8.

Q: And the Mean FL2-H [2]?
A: Its Mean FL2-H is 4.19.

Q: What about the Median FL2-H [2] of the same molecule?
A: Its Median FL2-H is 3.74.

Q: anti-hFc-PE (antibody) was tested. Which Mean FL2-H [3] did it give?
A: The Mean FL2-H was 2.81.

Q: What about the Median FL2-H [3] of the same molecule?
A: Its Median FL2-H is 2.5.

Q: What about the Mean FL2-H [4] of the same molecule?
A: The Mean FL2-H was 5.41.

Q: And the Median FL2-H [4]?
A: The Median FL2-H was 4.82.

B1: Clone MN8 (VH domain) (VHH)
VHH: EVQLVESGGGLVQPGGSLRLSCAASGFTFSSYAMGWVRQAPGKGPEVVSLISGSGGSTWYDDSVKGRFTISRDNSKNTLYLQMNSLRAEDTAVYYCASPEDAPSYSRWGQGTLVTVSS
notes: Single-domain antibody: a VH domain from a synthetic phage library, not camelid; Expressed in E. coli
Q: What does the source list for B1?
A: Median FL2-H [5]: 12.9; Mean FL2-H [6]: 15.1; Median FL2-H [7]: 4.43; Kd [8]: 1.17 nM; Mean FL2-H [9]: 4.93

B2: MN8 VH-Fc protein (Fc fusion)
chain: B1 VHH
notes: VH domain fused to a human IgG1 Fc domain; not shown: human IgG1 Fc domain
Q: How did the “Mean FL2-H” value [10] turn out when B2 was run?
A: The value was 3.13.

Q: And the “Mean FL2-H” value [11]?
A: The value was 14.

Q: What about the “Median FL2-H” value [12] of the same molecule?
A: The value was 2.77.

Q: What about the “Median FL2-H” value [13] of the same molecule?
A: Its value is 10.3.

B3: Clone MN1 (VH domain) (VHH)
VHH: EVQLVESGGGLVQPGGSLRLSCAASGFTFTAYDMGWVRQAPGKGPEWVSLISSDSGDTWYDDSVKGRFTISRDNSKNTLYLQMNSLRAEDTAVYYCARLGAYSTTYDYWGQGTLVTVSS
notes: as for B1
Q: What does the source list for B3?
A: Median FL2-H [5]: 50.4; Mean FL2-H [6]: 62.9; Median FL2-H [7]: 14.3; Kd [8]: 0.7 nM; Mean FL2-H [9]: 24

B4: MN1 VH-Fc protein (Fc fusion)
chain: B3 VHH
notes: as for B2
Q: How did the “Mean FL2-H” value [10] turn out when B4 was run?
A: Its value is 49.9.

Q: What about the “Mean FL2-H” value [11] of the same molecule?
A: The value was 134.

Q: What about the “Median FL2-H” value [12] of the same molecule?
A: The value was 42.1.

Q: And the “Median FL2-H” value [13]?
A: Its value is 101.

B5: Clone MN5 (VH domain) (VHH)
VHH: EVQLVESGGGLVQPGGSLRLSCAASGFTFSSYAMGWVRQAPGKGPEVVSLISGSGGSTWYDDSVKGRFTISRDNSKNTLYLQMNSLRAEDTAVYYCASREDNMTTWGQGTLVTVSS
notes: as for B1
Q: Which results are given for B5?
A: Median FL2-H [5]: 22.9; Mean FL2-H [6]: 25.6; Median FL2-H [7]: 9.81; Kd [8]: 2.22 nM; Mean FL2-H [9]: 13.9

B6: MN5 VH-Fc protein (Fc fusion)
chain: B5 VHH
notes: as for B2
Q: Which “Mean FL2-H” value [10] does the source give for B6 here?
A: Its value is 3.02.

Q: And the “Mean FL2-H” value [11]?
A: Its value is 10.6.

Q: What about the “Median FL2-H” value [12] of the same molecule?
A: The value was 2.64.

Q: And the “Median FL2-H” value [13]?
A: The value was 7.78.

B7: Clone MN7 (VH domain) (VHH)
VHH: B5 VHH with R99P, N102M, M103Y, T104Q
notes: as for B1
Q: With B7 as the molecule, how does the “Median FL2-H” value [5] read?
A: Its value is 11.8.

Q: And the “Mean FL2-H” value [6]?
A: The value was 14.8.

Q: And the “Median FL2-H” value [7]?
A: The value was 4.49.

Q: What about the Kd [8] of the same molecule?
A: Its Kd is 2.23 nM.

Q: What about the “Mean FL2-H” value [9] of the same molecule?
A: Its value is 5.38.

B8: MN7 VH-Fc protein (Fc fusion)
chain: B5 VHH with R99P, N102M, M103Y, T104Q
notes: as for B2
Q: For B8, which “Mean FL2-H” value [10] is on record?
A: The value was 2.89.

Q: What about the “Mean FL2-H” value [11] of the same molecule?
A: The value was 10.1.

Q: And the “Median FL2-H” value [12]?
A: The value was 2.55.

Q: And the “Median FL2-H” value [13]?
A: The value was 7.92.
